Results: publication doi:10.1101/2020.07.20.212654 (bioRxiv, 2020)
Each block holds one molecule with its values, some of them ahead of it.

Assays:
MET567 [1] = target: T1, MET567 (human, UniProt P08581 25-567); experiment: SEC-SAXS
MET567 [2] = target: T1, MET567; experiment: SPR

T1 sequence (P08581 25-567): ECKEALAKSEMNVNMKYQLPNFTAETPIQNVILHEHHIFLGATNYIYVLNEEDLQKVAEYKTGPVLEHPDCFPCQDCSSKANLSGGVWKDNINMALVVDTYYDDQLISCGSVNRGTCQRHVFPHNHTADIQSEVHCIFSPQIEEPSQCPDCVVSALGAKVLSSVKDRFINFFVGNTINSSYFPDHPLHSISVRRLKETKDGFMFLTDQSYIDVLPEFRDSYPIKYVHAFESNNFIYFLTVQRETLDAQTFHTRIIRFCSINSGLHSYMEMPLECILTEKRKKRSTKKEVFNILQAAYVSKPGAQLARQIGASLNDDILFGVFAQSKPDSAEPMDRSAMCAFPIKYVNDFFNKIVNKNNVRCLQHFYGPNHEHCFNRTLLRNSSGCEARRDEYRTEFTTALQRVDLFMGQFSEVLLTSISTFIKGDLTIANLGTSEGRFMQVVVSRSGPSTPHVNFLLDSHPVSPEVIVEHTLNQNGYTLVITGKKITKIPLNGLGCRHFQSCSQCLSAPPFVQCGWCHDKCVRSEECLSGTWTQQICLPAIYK

stoichiometry N (MET567 [1]): 1 K1K1:MET567
Kd (MET567 [2]): 0.205 µM
Molecule: K1K1 (from UniProt P14210 128-206) (ligand)

Kd (MET567 [2]): 0.2 µM
B1: NK1 (domain or fragment, human, UniProt P14210 28-209, looked up)
chain: YAEGQRKRRNTIHEFKKSAKTTLIKIDPALKIKTKKVNTADQCANRCTRNKGLPFTCKAFVFDKARKQCLWFPFNSMSSGVKKEFGHEFDLYENKDYIRNCIIGKGRSYKGTVSITKSGIKCQPWSSMIPHEHSFLPSSYRGKDLQENYCRNPRGEEGGPWCFTSNPEVRYEVCDIPQCSEV
